According to patent publication US20150147316A1 (Seagen, published 2015):

B1: h2H12EC-SGD-1910 (other)
VH: QVQLVQSGAEVKKPGASVKVSCKASGYTFTNYDINWVRQAPGQGLEWIGWIYPGDGSTKYNEKFKAKATLTADTSTSTAYMELRSLRSDDTAVYYCASGYEDAMDYWGQGTTVTVSS
VL: DIQMTQSPSSLSASVGDRVTINCKASQDINSYLSWFQQKPGKAPKTLIYRANRLVDGVPSRFSGSGSGQDYTLTISSLQPEDFATYYCLQYDEFPLTFGGGTKVEIK
modifications: drug-linker SGD-1910 (pyrrolobenzodiazepine dimer) on the cysteine introduced at position 239 of the IgG1 chain, average about 2 drugs per antibody
B2: h2H12-SGD-1269 (other)
VH: B1 VH
VL: B1 VL
modifications: drug-linker SGD-1269 (mcMMAF) on thiol groups of interchain disulfide cysteines, average about 4 drugs per antibody

What was measured:
[1] = molecular target: T1, human CD33 (human, UniProt P20138 18-364); assay: cell-based or functional assay
[2] = molecular target: T1, human CD33; assay: cell-based or functional assay; remark: listed apart in the source

T1 sequence (P20138 18-364): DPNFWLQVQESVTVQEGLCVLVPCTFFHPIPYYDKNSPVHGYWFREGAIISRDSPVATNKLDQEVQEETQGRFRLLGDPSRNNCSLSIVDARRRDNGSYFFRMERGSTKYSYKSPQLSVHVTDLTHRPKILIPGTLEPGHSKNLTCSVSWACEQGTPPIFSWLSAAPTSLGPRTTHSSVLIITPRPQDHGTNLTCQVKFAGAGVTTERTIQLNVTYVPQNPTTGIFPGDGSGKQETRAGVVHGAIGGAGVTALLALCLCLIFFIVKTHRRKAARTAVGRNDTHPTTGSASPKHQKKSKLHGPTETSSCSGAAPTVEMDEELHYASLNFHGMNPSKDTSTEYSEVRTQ

Binder | IC50, cytotoxicity on HEL 92.1.7 cells (96 h, CelltiterGlo) [1] | IC50, cytotoxicity on HL-60 cells (96 h, CelltiterGlo) [1] | mean IC50 over 7 of 7 AML cell lines, cytotoxicity [1] | IC50 (ng/mL), cytotoxicity on HEL 92.1.7 cells [2] | IC50 (ng/mL), cytotoxicity on HL-60 cells [2] | IC50 (ng/mL), cytotoxicity on KG-1 cells [2] | IC50 (ng/mL), cytotoxicity on MV4-11 cells [2] | IC50 (ng/mL), cytotoxicity on TF1-α cells [2] | IC50 (ng/mL), cytotoxicity on TF-1 cells [2] | IC50 (ng/mL), cytotoxicity on U937 cells [2] | mean IC50 for responsive AML cell lines (4 of 7), cytotoxicity [1]
B1 | ~12.9 ng/mL | ~1.6 ng/mL | 20.4 ng/mL | 7 ng/mL | 1 ng/mL | 3 ng/mL | 0.1 ng/mL | 49 ng/mL | 61 ng/mL | 22 ng/mL | –
B2 | – | 5.3 ng/mL | – | > 1000 ng/mL | 2 ng/mL | 270 ng/mL | 0.1 ng/mL | > 1000 ng/mL | > 1000 ng/mL | 19 ng/mL | 72.8 ng/mL
